Measurements as given in US20080160018A1 (PDL BIOPHARMA, published 2008).

How the values were obtained:
[1] = target: T1, p75 chain of the human IL-2 receptor on YTJB cells (human, UniProt P14784 27-551); test: flow cytometry on YTJB cells
T1 construct: whole, on cells; also called p75 protein; p75 antigen
T1 sequence (looked up): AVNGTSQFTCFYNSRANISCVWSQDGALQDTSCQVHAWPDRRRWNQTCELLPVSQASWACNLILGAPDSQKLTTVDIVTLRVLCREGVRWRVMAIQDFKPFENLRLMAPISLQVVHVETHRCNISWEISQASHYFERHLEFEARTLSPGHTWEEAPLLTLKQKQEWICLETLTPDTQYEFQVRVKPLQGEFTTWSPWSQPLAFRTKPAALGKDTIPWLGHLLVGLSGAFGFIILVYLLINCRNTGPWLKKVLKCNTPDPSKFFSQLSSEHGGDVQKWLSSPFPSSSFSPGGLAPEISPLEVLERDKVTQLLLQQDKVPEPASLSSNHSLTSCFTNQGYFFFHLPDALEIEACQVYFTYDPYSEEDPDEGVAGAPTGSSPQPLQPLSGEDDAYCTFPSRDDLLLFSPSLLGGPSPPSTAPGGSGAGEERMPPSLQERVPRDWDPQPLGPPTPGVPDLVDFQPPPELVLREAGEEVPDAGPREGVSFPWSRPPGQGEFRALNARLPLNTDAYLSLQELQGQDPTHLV
Protocol: Cells were suspended in FACS buffer (PBS+2% BSA+0.1% azide) at approximately 5×10⁶/ml. 100 ul of cell suspension was transferred to a polystyrene tube and incubated with 100 ng of purified antibody on ice for 30 min. The cells were washed with FACS buffer and incubated with goat anti-human Ig antibody on ice for another 30 min. Then the cells were washed and incubated with FITC labeled rabbit anti-goat Ig antibody for 30 min. The cells were washed again and finally resuspended in PBS+1% paraformaldehyde. Cells were analyzed on a FACSmate (Becton Dickinson).

[2] = target: T1, p75 chain of the human IL-2 receptor on …; test: competition with radio-iodinated mouse mik-β1 on YTJB cells, Berzofsky calculation
Protocol: After incubation for 2 hr at 0° C. the cells were washed twice with binding buffer without mouse Ig and collected by centrifugation. The radioactivity bound to cells was measured and expressed as the ratio of bound/free cpm.

B1: chimeric mik-β1 antibody (antibody, V domains shown)
VH: QVQLKQSGPGLVQPSQSLSITCTVSGFSVTSYGVHWIRQSPGKGLEWLGVIWSGGSTDYNAAFISRLTISKDNSKSQVFFKVNSLQPADTAIYYCARAGDYNYDGFAYWGQGTLVTVSA
VL: QIVLTQSPAIMSASPGEKVTMTCSGSSSVSFMYWYQQRPGSSPRLLIYDTSNLASGVPVRFSGSGSGTSYSLTISRMEAEDAATYYCQQWSTYPLTFGAGTKLELK
binding result [1]: binds

B2: humanized mik-β1 antibody (antibody, V domains shown)
VH: EVQLLESGGGLVQPGGSLRLSCAASGFTVTSYGVHWVRQAPGKGLEWVGVIWSGGSTDYNAAFISRFTISRDNSKNTLYLQMNSLQAEDTAIYYCARAGDYNYDGFAYWGQGTLVTVSS
VL: DIQMTQSPSSLSASVGDRVTITCSGSSSVSFMYWYQQKPGKAPKLLIYDTSNLASGVPSRFSGSGSGTDYTFTISSLQPEDIATYYCQQWSTYPLTFGQGTKVEVK
fold difference of binding affinity against the mouse mik-β1 antibody [2]: ≤ 2 fold
